{"source": "paper PMC9770967", "about": "“Native holdup (nHU) to measure binding affinities from cell extracts” (Science Advances, 2022)", "target": "biotinylated PDZ-binding motif (PBM) peptide of diacylglycerol kinase zeta (DGKZ)", "test": "native holdup (nHU) with Western blot; titration; biotinylated DGKZ PBM peptide on streptavidin resin as bait, mixed with biotin-saturated control resin at constant resin/analyte ratio; total Jurkat extract (2 mg/ml) as analyte; 4°C, 2 hours; prey depletion in the supernatant read by Western blot; apparent constants; three replicates"}
{"substance": "endogenous full-length Scribble (SCRIB) (from UniProt Q14160 1-1655) (natural protein)", "values": [{"measurement": "pKapp (negative logarithm of the apparent dissociation constant)", "value": 6.4, "unit": "pKapp"}]}
